Read-outs that look alike come from different tables or passages of the source. Non-standard residues stand in square brackets, D forms with d. Residues, ends and D or L forms follow the SMILES beside them. No end group written: not given here.
B1: [D-Ala^2]N/OFQ(1–13)-NH2 (peptide)
peptide: F[dA]GFTGARKSARK-NH2
modifications: N-terminus assumed
SMILES: C[C@H](NC(=O)CNC(=O)[C@@H](NC(=O)[C@H](Cc1ccccc1)NC(=O)CNC(=O)[C@@H](C)NC(=O)[C@@H](N)Cc1ccccc1)[C@@H](C)O)C(=O)N[C@@H](CCCNC(=N)N)C(=O)N[C@@H](CCCCN)C(=O)N[C@@H](CO)C(=O)N[C@@H](C)C(=O)N[C@@H](CCCNC(=N)N)C(=O)N[C@@H](CCCCN)C(N)=O

Key:
[1] = molecular target: N/OFQ peptide (NOP) receptor fused to Renilla luciferase (UniProt P41146)
Chain of N/OFQ peptide (NOP) receptor fused to Renilla luciferase (P41146 whole entry, the tested form may be a part): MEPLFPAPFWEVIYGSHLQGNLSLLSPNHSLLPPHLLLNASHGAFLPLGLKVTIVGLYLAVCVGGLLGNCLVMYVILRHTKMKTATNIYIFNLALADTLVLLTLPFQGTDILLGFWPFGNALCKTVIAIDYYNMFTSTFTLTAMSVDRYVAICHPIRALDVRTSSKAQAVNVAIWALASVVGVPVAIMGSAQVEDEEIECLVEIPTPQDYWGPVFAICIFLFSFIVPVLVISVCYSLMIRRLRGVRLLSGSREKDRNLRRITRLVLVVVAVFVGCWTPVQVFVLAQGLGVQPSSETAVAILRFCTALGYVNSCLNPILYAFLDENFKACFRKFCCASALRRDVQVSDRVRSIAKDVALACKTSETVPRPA

[2] = molecular target: N/OFQ peptide (NOP) receptor fused to Renilla luciferase (UniProt P41146); remark: listed apart in the source
[3] = molecular target: T1, mu opioid receptor (mu-RLuc/Gβ1-RGFP) (Homo sapiens, UniProt P35372); format: biochemical
T1 construct: expressed in transfected cells; host or cells: SH-SY5Y (enriched plasma membranes)
T1 sequence (P35372 whole entry, species assumed): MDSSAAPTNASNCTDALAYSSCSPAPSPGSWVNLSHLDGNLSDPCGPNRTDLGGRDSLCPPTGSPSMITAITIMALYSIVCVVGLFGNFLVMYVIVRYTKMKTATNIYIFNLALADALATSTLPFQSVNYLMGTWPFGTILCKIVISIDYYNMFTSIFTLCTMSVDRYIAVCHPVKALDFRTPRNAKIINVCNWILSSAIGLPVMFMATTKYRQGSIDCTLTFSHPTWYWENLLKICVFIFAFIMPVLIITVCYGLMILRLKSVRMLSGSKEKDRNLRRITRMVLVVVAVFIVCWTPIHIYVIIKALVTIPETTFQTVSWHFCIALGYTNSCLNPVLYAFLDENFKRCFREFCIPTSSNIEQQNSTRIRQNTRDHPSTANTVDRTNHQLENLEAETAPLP
Description: For this study, human embryonic kidney (HEK293) cells, permanently co-expressing the different pairs of fusion proteins NOP-RLuc/Gβ1-RGFP and NOP-RLuc/β-arrestin 2-RGFP, and SH-SY5Y cells stably, co-expressing the different pairs of fusion proteins mu-RLuc/Gβ1-RGFP and mu-RLuc/β-arrestin 2-RGFP or delta-RLuc/Gβ1-RGFP and delta-RLuc/β-arrestin 2-RGFP, were used. Cells were prepared and cultured, as described previously.[19],[23] […] The protein concentration in membrane preparations was determined using the QPRO-BCA kit (Cyanagen Srl, Bologna, IT) and the Ensight (PerkinElmer, Waltham, USA) in the spectrophotometer mode.
Luminescence in membranes was recorded in 96-well untreated white opaque microplates, while in whole cells, it was recorded in 96-well sterile poly-D-lysine-coated white opaque microplates (PerkinElmer, Waltham, MA, USA) using the luminometer Victor 2030 (PerkinElmer, Waltham, MA, USA). […] Coelenterazine at a final concentration of 5 μM was injected 15 min prior to reading the cell plate. Different concentrations of ligands in 20 μL of PBS–BSA 0.01% were added and incubated 5 min before reading luminescence. […] The BRET ratio was measured 15 min after agonist injection. […]
The pharmacological terminology adopted in this paper is consistent with IUPHAR recommendations.[68] All data are expressed as the mean ± sem of five independent experiments made in duplicate. […]

[4] = molecular target: N/OFQ peptide (NOP) receptor fused to Renilla luciferase (UniProt P41146); remark: listed apart in the source

Row | Molecule | pEC50 for promoting the NOP/G protein interaction (BRET, membranes with NOP-RLuc and Gβ1-RGFP) [1] | pEC50 for promoting the NOP/β-arrestin 2 interaction (BRET, cells with NOP-RLuc and β-arrestin 2-RGFP) [1] | pEC50 for promoting the NOP/G protein interaction (BRET, membranes with NOP-RLuc and Gβ1-RGFP) [2] | pEC50 for promoting the NOP/β-arrestin 2 interaction (BRET, cells with NOP-RLuc and β-arrestin 2-RGFP) [2] | also measured
1 | [AC5C^7]N/OFQ-NH2 (peptide) | 8.1 -log10 M | 8.1 -log10 M |  |  | 
2 | [AC5C^11]N/OFQ-NH2 (peptide) | 8.61 -log10 M | 8.22 -log10 M |  |  | 
3 | [Cha^1]N/OFQ(1–13)-NH2 (peptide) |  |  | 8.93 -log10 M | 8.28 -log10 M | 
4 | CSCC[C@H](NC(=O)[C@H](CC(C)C)NC(=O)[C@H](Cc1c[nH]cn1)NC(=O)[C@H](Cc1ccccc1)NC(=O)[C@@H](CCSC)NC(=O)[C@@H](N)Cc1ccc(O)cc1)C(=O)N[C@@H](CC(=O)O)C(N)=O [Deltorphin A] (H-Y[dM]FHLMD-NH2) |  |  |  |  | mu/G protein pEC50 (CL95%) [3]: crc incomplete
5 | [Aib^11]N/OFQ-NH2 (peptide) | 8.35 -log10 M | 8.21 -log10 M |  |  | 
6 | [Aib^7]N/OFQ-NH2 (peptide) | 8.92 -log10 M | 8.4 -log10 M |  |  | 
7 | [AC3C^7]N/OFQ-NH2 (peptide) | 7.67 -log10 M | 7.56 -log10 M |  |  | 
8 | FGGFNGARKSARK-NH2 [[Asn^5]N/OFQ(1–13)-NH2] |  |  | 8.03 -log10 M | 7.56 -log10 M | 
9 | FGGATGARKSARK-NH2 [[Ala^4]N/OFQ(1–13)-NH2] |  |  |  |  | concentration ratio (EC50 of the ligand / EC50 of N/OFQ(1–13)-NH2) for promoting the NOP/G protein interaction (BRET, membranes); concentration–response curve incomplete [4]: 1000
10 | FGGWTGARKSARK-NH2 [[Trp^4]N/OFQ(1–13)-NH2] |  |  | 7.63 -log10 M | 7.17 -log10 M | 
11 | FGAFTGARKSARK-NH2 [[Ala^3]N/OFQ(1–13)-NH2] |  |  |  |  | pEC50 for promoting the NOP/G protein interaction (BRET, membranes with NOP-RLuc and Gβ1-RGFP) [4]: 7.88 -log10 M; pEC50 for promoting the NOP/β-arrestin 2 interaction (BRET, cells with NOP-RLuc and β-arrestin 2-RGFP) [4]: 7.54 -log10 M
12 | FGGFVGARKSARK-NH2 [[Val^5]N/OFQ(1–13)-NH2] |  |  | 7.94 -log10 M | 7.38 -log10 M | 
13 | B1 |  |  | 7.57 -log10 M | 7.16 -log10 M | 

— article PMC8011926 (Journal of Medicinal Chemistry, 2020)
